According to US20220340635A1 (ZHEJIANG DOER BIOLOGICS, published 2022):
Changes are numbered by the printed parent chain.

B1: A352L1F8L5W (Fc fusion)
chain: HSQGTFTSDYSKYLDSQAAQDFVQWLLAGGPSSGAPPPSGGGGSGGGGSGGGGSAESKYGPPCPPCPAPEAAGGPSVFLFPPKPKDTLMISRTPEVTCVVVDVSQEDPEVQFNWYVDGVEVHNAKTKPREEQFASTYRVVSVLTVLHQDWLNGKEYKCKVSNKGLPSSIEKTISKAKGQPREPQVYTLPPSQEEMTKNQVSLTCLVKGFYPSDIAVEWESNGQPENNYKTTPPVLDSDGSFFLYSRLTVDKSRWQEGNVFSCSVMHEALHNHYTQKSLSLSLGGGGGAGGGGAGGGGAHPIPDSSPLLQFGGQVRQRYLYTDDAQQTEAHLEIREDGTVGGAADQSPESLLQLKALKPGVIQILGVKTSRFLCQRPDGALYGSLHFDPEACSFRELLLEDGYNVYQSEAHGLPLHLPGNKSPHRDPAPRGPARFLPLPGLPPALPEPPGILAPQPPDVGSSDPLSMVGPSQGRSPSYAS
B2: A352L1F8L5M1 (Fc fusion)
chain: B1 chain with L396R, P469G, A478E
B3: A382L1F8L5M1 (Fc fusion)
chain: B1 chain with A28D, L396R, P469G, A478E
B4: A137L1F8L5M3 (Fc fusion)
chain: YSEGTFTSDYSKYLDSQAAQDFVQWLLDGGPSSGAPPPSGGGGSGGGGSGGGGSAESKYGPPCPPCPAPEAAGGPSVFLFPPKPKDTLMISRTPEVTCVVVDVSQEDPEVQFNWYVDGVEVHNAKTKPREEQFASTYRVVSVLTVLHQDWLNGKEYKCKVSNKGLPSSIEKTISKAKGQPREPQVYTLPPSQEEMTKNQVSLTCLVKGFYPSDIAVEWESNGQPENNYKTTPPVLDSDGSFFLYSRLTVDKSRWQEGNVFSCSVMHEALHNHYTQKSLSLSLGGGGGAGGGGAGGGGADSSPLLQFGGQVRQRYLYTDDAQQTEAHLEIREDGTVGGAADQSPESLLQLKALKPGVIQILGVKTSRFLCQRPDGALYGSLHFDPEACSFRELLLEDGYNVYQSEAHGLPLHCPGNKSPHRDPAPRGPCRFLPLPGLPPALPEPPGILAPQPPDVGSSDPLAMVGPSQGRSPSYAS
B5: A175L1F8L5M3 (Fc fusion)
chain: B4 chain with D28A

Assays:
Assay in all cases: cell-based or functional assay
[1] = molecular target: GCGR
[2] = molecular target: β-klotho (KLB)
[3] = molecular target: human GLP-1R (human, UniProt P43220 24-463)

Row | Binder | GCGR agonist activity (EC50, nM) [1] | FGF21 activity (EC50, nM) [2] | GLP-1R agonist activity (EC50, nM) [3]
1 | B1 | 1.22 nM | 0.55 nM | 1.34 nM
2 | B2 | 1.2 nM | 0.79 nM | 1.13 nM
3 | B3 | 1.2 nM | 0.79 nM | 1.13 nM
4 | B4 | 41.2 nM | 0.82 nM | 59.1 nM
5 | B5 | 39.2 nM | 0.63 nM | 47.1 nM
